The values below come from paper PMC9482650, “Quantitative fragmentomics allow affinity mapping of interactomes” (Nature Communications, 2022).

Targets include TJP1_2, Q07157; IL16_3, Q14005; PICK1, Q9NRD5; NHERF4_2, Q86UT5; PTPN3, P26045; DLG1_3, Q12959; MAST1, Q9Y2H9; MAGI2_5, Q86UL8; AHNAK1, Q09666; NOS1, P29475; HTRA1, Q92743; DLG2_3, Q15700.
What all share (assay): holdup assay
Holding throughout (parameters): key: below the threshold = too weak to quantify, mostly under pKd 3.1 to 4
Settings in all cases: plain residues with an end cap or a label only (N-terminal biotin on a linker: ado-ado)

The next test has as its target T1, DFNB31_3, Q9P202.
T1 sequence (Q9P202 811-907, limits assumed, looked up): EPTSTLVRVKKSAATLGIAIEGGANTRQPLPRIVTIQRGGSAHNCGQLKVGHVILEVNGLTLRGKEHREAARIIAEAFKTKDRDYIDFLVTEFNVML

A further test has as its target T2, ARHGEF11, O15085.
T2 sequence (O15085 42-136, limits assumed, looked up): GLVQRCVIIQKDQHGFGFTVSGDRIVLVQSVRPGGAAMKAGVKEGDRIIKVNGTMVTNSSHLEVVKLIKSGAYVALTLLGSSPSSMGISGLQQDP

The next test addresses T3, APBA3_1, O96018.
T3 sequence (O96018 389-490, limits assumed, looked up): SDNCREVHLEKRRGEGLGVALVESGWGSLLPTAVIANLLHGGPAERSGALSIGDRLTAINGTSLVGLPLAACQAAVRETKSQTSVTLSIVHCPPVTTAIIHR

The target of another test is T4, NHERF3_4, Q5T2W1.
T4 sequence (Q5T2W1 373-468, limits assumed, looked up): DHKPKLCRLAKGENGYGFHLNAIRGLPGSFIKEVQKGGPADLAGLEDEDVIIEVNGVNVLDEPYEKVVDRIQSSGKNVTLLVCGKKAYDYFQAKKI

A further test concerns the target T5, MPDZ_5, O75970.
T5 sequence (O75970 695-796, limits assumed, looked up): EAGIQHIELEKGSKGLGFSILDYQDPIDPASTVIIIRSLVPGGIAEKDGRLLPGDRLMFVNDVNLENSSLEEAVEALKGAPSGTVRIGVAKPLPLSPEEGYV

A further test deals with T6, PDZRN3_1, Q9UPQ7.
T6 sequence (Q9UPQ7 244-349, limits assumed, looked up): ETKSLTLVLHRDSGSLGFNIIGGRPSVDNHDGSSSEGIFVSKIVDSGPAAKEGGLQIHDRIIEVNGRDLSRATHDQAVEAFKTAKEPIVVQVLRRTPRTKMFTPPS

In a further test the target is T7, TX1BP3, O14907.
T7 sequence (O14907 10-122, limits assumed, looked up): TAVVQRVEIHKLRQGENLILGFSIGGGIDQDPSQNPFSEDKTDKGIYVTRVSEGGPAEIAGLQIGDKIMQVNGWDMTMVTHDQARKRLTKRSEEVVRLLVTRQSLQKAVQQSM

A further test concerns the target T8, DLG3_1, Q92796.
T8 sequence (Q92796 125-227, limits assumed, looked up): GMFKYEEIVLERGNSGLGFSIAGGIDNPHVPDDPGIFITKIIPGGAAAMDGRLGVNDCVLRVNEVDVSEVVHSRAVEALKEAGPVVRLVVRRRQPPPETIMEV

Another test deals with T9, MPDZ_12, O75970.
T9 sequence (O75970 1857-1958, limits assumed, looked up): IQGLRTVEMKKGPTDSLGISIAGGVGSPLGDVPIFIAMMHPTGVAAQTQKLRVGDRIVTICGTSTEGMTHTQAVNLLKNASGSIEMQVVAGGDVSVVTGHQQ

The target of the next test is T10, LRRC7, Q96NW7.
T10 sequence (Q96NW7 1440-1537, limits assumed, looked up): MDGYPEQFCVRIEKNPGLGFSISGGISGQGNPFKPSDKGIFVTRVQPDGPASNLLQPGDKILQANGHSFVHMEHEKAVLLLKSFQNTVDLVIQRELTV

A further test concerns the target T11, MPDZ_10, O75970.
T11 sequence (O75970 1624-1722, limits assumed, looked up): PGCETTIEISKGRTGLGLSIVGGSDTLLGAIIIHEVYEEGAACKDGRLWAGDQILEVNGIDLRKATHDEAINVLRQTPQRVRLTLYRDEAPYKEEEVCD

In another test the target is T12, LIN7A, O14910.
T12 sequence (O14910 103-200, limits assumed, looked up): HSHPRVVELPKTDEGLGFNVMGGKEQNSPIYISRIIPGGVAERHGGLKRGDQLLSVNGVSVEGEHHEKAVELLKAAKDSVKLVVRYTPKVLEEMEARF

Chain of PICK1, Q9NRD5 (Q9NRD5 17-115): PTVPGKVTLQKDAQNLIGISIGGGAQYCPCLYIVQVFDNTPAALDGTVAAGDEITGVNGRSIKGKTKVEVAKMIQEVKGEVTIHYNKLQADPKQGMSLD
Chain of MAST1, Q9Y2H9 (Q9Y2H9 962-1065): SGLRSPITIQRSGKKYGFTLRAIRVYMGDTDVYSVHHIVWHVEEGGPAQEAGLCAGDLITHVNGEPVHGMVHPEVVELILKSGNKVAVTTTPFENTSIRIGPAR
Chain of NOS1, P29475 (P29475 9-101): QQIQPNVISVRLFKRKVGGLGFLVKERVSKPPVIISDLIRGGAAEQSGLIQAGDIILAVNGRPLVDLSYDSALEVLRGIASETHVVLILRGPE
Chain of DLG1_3, Q12959 (Q12959 457-571): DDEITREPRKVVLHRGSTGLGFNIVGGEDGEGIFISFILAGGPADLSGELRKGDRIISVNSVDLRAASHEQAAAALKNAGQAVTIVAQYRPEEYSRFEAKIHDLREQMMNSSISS
Chain of IL16_3, Q14005 (Q14005 1107-1207): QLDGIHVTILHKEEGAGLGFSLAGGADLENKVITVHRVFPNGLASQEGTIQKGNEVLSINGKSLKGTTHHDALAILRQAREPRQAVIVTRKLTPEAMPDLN
Chain of AHNAK1, Q09666 (Q09666 4-100): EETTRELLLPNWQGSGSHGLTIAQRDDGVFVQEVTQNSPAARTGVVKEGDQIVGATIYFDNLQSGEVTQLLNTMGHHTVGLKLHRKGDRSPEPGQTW
Chain of HTRA1, Q92743 (Q92743 360-477): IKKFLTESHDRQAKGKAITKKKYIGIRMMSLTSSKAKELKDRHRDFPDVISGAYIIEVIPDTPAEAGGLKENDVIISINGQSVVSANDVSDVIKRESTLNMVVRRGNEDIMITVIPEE
Chain of TJP1_2, Q07157 (Q07157 181-274): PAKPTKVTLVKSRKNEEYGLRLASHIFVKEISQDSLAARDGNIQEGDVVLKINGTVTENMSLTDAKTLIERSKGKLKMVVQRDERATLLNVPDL
Chain of MAGI2_5, Q86UL8 (Q86UL8 915-1017): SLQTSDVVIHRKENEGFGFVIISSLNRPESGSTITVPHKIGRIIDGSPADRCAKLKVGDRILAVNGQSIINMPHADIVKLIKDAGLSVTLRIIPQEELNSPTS
Chain of PTPN3, P26045 (P26045 505-587): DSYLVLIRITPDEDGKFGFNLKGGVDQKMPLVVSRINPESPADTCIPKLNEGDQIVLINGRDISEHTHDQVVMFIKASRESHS
Chain of NHERF4_2, Q86UT5 (Q86UT5 220-308): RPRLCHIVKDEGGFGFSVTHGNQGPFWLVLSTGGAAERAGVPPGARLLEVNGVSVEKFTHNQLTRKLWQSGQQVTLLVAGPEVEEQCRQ

Regarding GSQSQVETEA [FKBP4, Q02790], the pKd result is “below the threshold” in the test with DFNB31_3, Q9P202; “below the threshold” in the test with ARHGEF11, O15085; “below the threshold” with TJP1_2, Q07157; “below the threshold” in the test with APBA3_1, O96018; 3.73 in the test with NHERF3_4, Q5T2W1; “below the threshold” with MPDZ_5, O75970. The pKd result with IL16_3, Q14005 is “below the threshold”; in the test with PICK1, Q9NRD5, “below the threshold”; with PDZRN3_1, Q9UPQ7, “below the threshold”; with NHERF4_2, Q86UT5, “below the threshold”; in the test with TX1BP3, O14907, “below the threshold”; in the test with DLG3_1, Q92796, “below the threshold”. Also, the pKd with MPDZ_12, O75970 was 3.52; with PTPN3, P26045 it was 4.08; with DLG1_3, Q12959, “below the threshold”; with MAST1, Q9Y2H9, 3.96; with LRRC7, Q96NW7, “below the threshold”; with MAGI2_5, Q86UL8, “below the threshold”. For the same molecule, the negative-log Kd (pKd) entry with AHNAK1, Q09666 was “below the threshold”; with MPDZ_10, O75970, “below the threshold”; with LIN7A, O14910 it was “below the threshold”; with NOS1, P29475 it was “below the threshold”; in the test with HTRA1, Q92743 it was 3.85; with DLG2_3, Q15700, 3.82.
On to ATKDKKITTV [EXOC4, Q96A65], for which the pKd entry in the test with DFNB31_3, Q9P202 is “below the threshold”; with ARHGEF11, O15085, 4.38; with TJP1_2, Q07157 it was 3.73; with APBA3_1, O96018, “below the threshold”; in the test with NHERF3_4, Q5T2W1, “below the threshold”; with MPDZ_5, O75970, “below the threshold”. The pKd entry with IL16_3, Q14005 was “below the threshold”; in the test with PICK1, Q9NRD5 it was “below the threshold”; in the test with PDZRN3_1, Q9UPQ7 it was 3.52; with NHERF4_2, Q86UT5 it was “below the threshold”; with TX1BP3, O14907, 3.91; in the test with DLG3_1, Q92796 it was 4.59. Further, the pKd entry with MPDZ_12, O75970 was “below the threshold”; with PTPN3, P26045, 4.31; in the test with DLG1_3, Q12959 it was 4.08; in the test with MAST1, Q9Y2H9 it was “below the threshold”; with LRRC7, Q96NW7 it was 3.48; with MAGI2_5, Q86UL8, 3.63. The pKd entry was “below the threshold” with AHNAK1, Q09666; 3.95 in the test with MPDZ_10, O75970; 3.52 with LIN7A, O14910; 3.69 with NOS1, P29475; 4.6 in the test with HTRA1, Q92743; 4.58 with DLG2_3, Q15700.
Turning to FHSIKQSTAV [CRHR1, P34998], the pKd result in the test with DFNB31_3, Q9P202 is “below the threshold”; in the test with ARHGEF11, O15085, 5; in the test with TJP1_2, Q07157, “below the threshold”; in the test with APBA3_1, O96018 it was “below the threshold”; with NHERF3_4, Q5T2W1, 4.27; in the test with MPDZ_5, O75970, “below the threshold”. Besides, the pKd result in the test with IL16_3, Q14005 was “below the threshold”; in the test with PICK1, Q9NRD5 it was “below the threshold”; with PDZRN3_1, Q9UPQ7 it was 4.17; with NHERF4_2, Q86UT5 it was “below the threshold”; in the test with TX1BP3, O14907 it was 4.11; with DLG3_1, Q92796, 4.04. The negative-log Kd (pKd) result is “below the threshold” in the test with MPDZ_12, O75970; 4.6 with PTPN3, P26045; 3.96 with DLG1_3, Q12959; 4.74 in the test with MAST1, Q9Y2H9; 3.49 with LRRC7, Q96NW7; 4.38 in the test with MAGI2_5, Q86UL8. The pKd result with AHNAK1, Q09666 was “below the threshold”; in the test with MPDZ_10, O75970 it was “below the threshold”; in the test with LIN7A, O14910, “below the threshold”; in the test with NOS1, P29475 it was 4.19; with HTRA1, Q92743, “below the threshold”; in the test with DLG2_3, Q15700, 4.54.

The pKd is the Kd on a negative log10 scale, so that one unit is a factor of ten.
